Measurements as given in patent US20260265393A1 (SHANGHAI CELGEN BIO PHARMACEUTICAL, published 2026).
Numbering of substitutions follows the chain as printed. Several values for one entry are separate records, joined by “and”; a condition that tells them apart may be missing. Equal values may be shown once. Read-outs that look alike come from different tables or passages of the source.

T1: human CD27 (transmembrane protein) on the cell membrane (human, UniProt P26842 20-260)
T1 construct: whole, on cells; One molecule is used for CD27 on CHO-CD27 cells, on human PBMC T and B cells and on Jurkat reporter cells; also called CHO-CD27
T1 sequence (looked up): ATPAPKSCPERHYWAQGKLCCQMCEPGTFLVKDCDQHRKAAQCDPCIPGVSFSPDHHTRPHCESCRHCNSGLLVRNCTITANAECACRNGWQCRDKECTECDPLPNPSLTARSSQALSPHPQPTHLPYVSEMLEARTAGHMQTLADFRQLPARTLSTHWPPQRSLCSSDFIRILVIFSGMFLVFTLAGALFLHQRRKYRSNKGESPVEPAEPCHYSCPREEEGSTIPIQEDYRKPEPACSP

T2: antigen CD27 (soluble, as used in the BLI and SPR experiments) (UniProt P26842 21-192, limits assumed)
T2 sequence (looked up): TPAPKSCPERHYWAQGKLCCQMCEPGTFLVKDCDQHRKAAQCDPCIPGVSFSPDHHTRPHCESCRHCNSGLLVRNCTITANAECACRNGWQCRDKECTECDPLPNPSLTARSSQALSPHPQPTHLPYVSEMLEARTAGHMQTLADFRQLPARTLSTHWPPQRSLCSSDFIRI

T3: CD27-mFc (Kangdai) (human, UniProt P26842 21-192, limits assumed)
T3 construct: Bought reagent; also called antigen CD27-mFc; solid-phase human CD27; not shown: mouse Fc (mFc)
T3 sequence (looked up): T2 sequence (looked up)

T4: human CD32a on Jurkat cells (Jurkat-CD32a) (human, UniProt P12318 34-317)
T4 construct: whole, on cells; also called membrane CD32a
T4 sequence (looked up): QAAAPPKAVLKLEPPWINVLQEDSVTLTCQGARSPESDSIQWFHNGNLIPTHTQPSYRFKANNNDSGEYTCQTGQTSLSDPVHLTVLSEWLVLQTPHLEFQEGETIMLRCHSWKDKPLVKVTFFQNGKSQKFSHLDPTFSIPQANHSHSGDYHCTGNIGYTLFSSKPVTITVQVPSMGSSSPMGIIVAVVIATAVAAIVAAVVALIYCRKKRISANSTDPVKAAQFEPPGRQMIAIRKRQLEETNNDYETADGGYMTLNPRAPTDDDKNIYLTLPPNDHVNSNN

T5: mouse CD27 (mouse, UniProt P41272 24-182, limits assumed)
T5 sequence (looked up): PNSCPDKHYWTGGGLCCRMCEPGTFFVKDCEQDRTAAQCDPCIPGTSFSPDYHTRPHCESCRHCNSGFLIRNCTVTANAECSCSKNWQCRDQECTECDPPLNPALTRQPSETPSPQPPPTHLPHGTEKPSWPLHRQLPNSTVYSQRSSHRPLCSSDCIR

B1: 13B3-huH2L3 (P33430) humanized CD27 monoclonal antibody (antibody, human IgG1)
heavy: not shown
VL: DIVLTQSPATLSVSPGERVTLSCRASQSVSNSLHWYQQKPGQAPRLLIMYTSQSISGIPARFSGSGSGTDFTLTISSVEPEDFAVYYCQQSNSWPLTFGGGTKLELK
notes: also called huVH2 + huVL3
B2: 13B3-huH2L3 (LALA) variant antibody (antibody, human IgG1, L234A L235A)
heavy: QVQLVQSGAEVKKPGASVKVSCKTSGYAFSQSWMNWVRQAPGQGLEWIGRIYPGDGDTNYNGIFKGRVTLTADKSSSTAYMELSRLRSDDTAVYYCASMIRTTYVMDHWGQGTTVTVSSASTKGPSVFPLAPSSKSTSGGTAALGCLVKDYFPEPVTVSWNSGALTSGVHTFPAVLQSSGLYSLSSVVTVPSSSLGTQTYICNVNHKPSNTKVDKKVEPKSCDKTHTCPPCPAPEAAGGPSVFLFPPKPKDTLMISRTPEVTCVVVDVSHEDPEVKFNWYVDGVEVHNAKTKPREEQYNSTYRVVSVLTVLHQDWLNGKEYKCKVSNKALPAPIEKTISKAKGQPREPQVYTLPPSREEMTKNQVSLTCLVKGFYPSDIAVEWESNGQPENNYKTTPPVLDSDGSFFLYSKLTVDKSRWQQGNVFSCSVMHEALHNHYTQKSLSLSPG
VL: B1 VL
notes: The light chain is that of 13B3-huH2L3 (huVL3)
B3: 13B3-huH2L4 (P33433) humanized CD27 monoclonal antibody (antibody, human IgG1)
heavy: not shown
VL: B1 VL with D1E, V13L, V19A, V78L
notes: also called huVH2 + huVL4; parent antibody (wild-type)
B4: 13B3-huH2L4 (LALA) variant antibody (antibody, human IgG1, L234A L235A)
heavy: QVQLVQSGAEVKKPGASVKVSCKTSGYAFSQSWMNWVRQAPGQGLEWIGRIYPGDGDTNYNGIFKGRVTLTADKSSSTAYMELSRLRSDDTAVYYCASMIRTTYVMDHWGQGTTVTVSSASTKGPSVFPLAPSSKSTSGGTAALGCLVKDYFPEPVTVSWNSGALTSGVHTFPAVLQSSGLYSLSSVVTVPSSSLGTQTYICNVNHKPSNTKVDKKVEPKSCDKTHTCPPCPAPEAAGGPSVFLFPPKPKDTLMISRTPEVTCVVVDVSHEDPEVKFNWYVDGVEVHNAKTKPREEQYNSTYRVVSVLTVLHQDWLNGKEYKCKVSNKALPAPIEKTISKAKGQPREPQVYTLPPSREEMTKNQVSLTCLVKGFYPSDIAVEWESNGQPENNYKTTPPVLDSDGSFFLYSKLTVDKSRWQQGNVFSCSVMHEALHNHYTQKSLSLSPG
VL: B1 VL with D1E, V13L, V19A, V78L
notes: The light chain is that of 13B3-huH2L4 (huVL4); also called mutant antibody
B5: 13B3-hFc human-mouse chimeric CD27 monoclonal antibody (antibody, V domains shown)
VH: QVQLQQSGPEQVKPGASVKISCKTSGYAFSQSWMNWVKQRPGQGLEWIGRIYPGDGDTNYNGIFKGKATLTADKSSSTAYMQLSSLTSLDSAVYFCASMIRTTYVMDHWGQGTSVTVTS
VL: DIVLTQSPATLSVTPGDSVSLSCRASQSVSNSLHWYQQKSHESPRLLIMYTSQSISGIPSRFSGSGSGTDFTLSINSVETEDFGMYFCQQSNSWPLTFGAGTKLELK
notes: Mouse 13B3 variable regions on human constant regions (expression vectors P378 and P379, made in 293F cells)
B6: 13B3-huH4L1 (P33425) humanized CD27 monoclonal antibody (antibody, V domains shown)
VH: QVQLVQSGAEVKKPGASVKVSCKTSGYAFSQSWMNWVRQAPGQGLEWMGRIYPGDGDTNYAQKFQGRVTMTADTSISTAYMELSRLRSDDTAVYYCASMIRTTYVMDHWGQGTTVTVSS
VL: EIVLTQSPDFLSVTPKEKVTLTCRASQSVSNSLHWYQQKPDQSPKLLIMYTSQSISGIPSRFSGSGSGTDFTLTINSVEAEDAATYYCQQSNSWPLTFGGGTKLELK
notes: also called huVH4 + huVL1
B7: 13B3-huH2L2 (P33426) humanized CD27 monoclonal antibody (antibody, V domains shown)
VH: B6 VH with M48I, A61N, Q62G, K63I, Q65K, M70L, T74K, I76S
VL: IVLTQSPDFQSVTPKEKVTITCRASQSVSNSLHWYQQKPDQSPKLLIMYTSQSISGVPSRFSGSGSGTDFTLTINSLEAEDAATYYCQQSNSWPLTFGGGTKLELK
notes: also called huVH2 + huVL2
B8: 17H8-hFc human-mouse chimeric CD27 monoclonal antibody (antibody, V domains shown)
VH: EVKLEESGGGLVQPGGSMKLSCVASGFTFSNYWMNWVRQSPEKGLEWVAEIRLKSNNYATYYAESVKGRFTISRDDSKSSVYLQMNSLRGEDTGIYYCTLYDSSYYYAMDYWGQGTSVTVSS
VL: DVVLTQTPLSLPVNIGDQASISCKSTQSLLHSDGFTYLDWYLQKPGQSPQLLIYLVSNRFLGVPDRFSGSGSRTDFTLKISRVEAEDLGVYYCFQSNYLPLTFGGGTKLEI
notes: Mouse 17H8 variable regions on human constant regions
B9: 13B3-huH3L4 (P33434) humanized CD27 monoclonal antibody (antibody, V domains shown)
VH: B6 VH with M48I, A61N, Q62G, K63I, M70L
VL: B1 VL with D1E, V13L, V19A, V78L
notes: also called huVH3 + huVL4
B10: 13B3-huH4L3 (P33432) humanized CD27 monoclonal antibody (antibody, V domains shown)
VH: B6 VH
VL: B1 VL
B11: 13B3 anti-human CD27 mouse monoclonal antibody (hybridoma clone) (antibody, V domains shown)
VH: B5 VH
VL: B5 VL
notes: also called 16B1-1-1
B12: 16B1 anti-human CD27 mouse monoclonal antibody (hybridoma clone) (antibody, V domains shown)
VH: B5 VH
VL: B5 VL
notes: Tested as hybridoma supernatant; also called 16B1-1-1
B13: 17H8 anti-human CD27 mouse monoclonal antibody (hybridoma clone) (antibody, V domains shown)
VH: B8 VH
VL: B8 VL
notes: also called 17H8-1-1

Assays:
[1] = biological target: T1, human CD27 (transmembrane protein) on …; experiment: flow cytometry on CHO cells expressing human CD27
[2] = biological target: T2, antigen CD27 (soluble, as used in the …); experiment: SPR, Biacore T200, CM5 chip
CD27-mFc (Kangdai) [3] = biological target: T3, CD27-mFc (Kangdai); experiment: ELISA on coated CD27-mFc
CD27-mFc (Kangdai) [4] = biological target: T3, CD27-mFc (Kangdai); experiment: competition ELISA: CD70 coated, CD27-mFc plus antibody dilutions; competitor CD70
CD27-mFc (Kangdai) [5] = biological target: T3, CD27-mFc (Kangdai); experiment: as above; remark: listed apart in the source
CD27-mFc (Kangdai) [6] = biological target: T3, CD27-mFc (Kangdai); experiment: ELISA on coated CD27-mFc (1 ug/mL), AP anti-human Fc detection, absorption at 405/490 nm (Example 15.2)
CD27-mFc (Kangdai) [7] = biological target: T3, CD27-mFc (Kangdai); experiment: ELISA on coated CD27-mFc; remark: listed apart in the source
[8] = biological target: T6, human CD64 on CHO-K cells (CHO-CD64) (human, UniProt P12314 16-374); experiment: flow cytometry on CHO-CD64 cells, FITC anti-human Fc detection (Example 16)
T6 construct: whole, on cells; also called membrane CD64
T6 sequence (P12314 16-374): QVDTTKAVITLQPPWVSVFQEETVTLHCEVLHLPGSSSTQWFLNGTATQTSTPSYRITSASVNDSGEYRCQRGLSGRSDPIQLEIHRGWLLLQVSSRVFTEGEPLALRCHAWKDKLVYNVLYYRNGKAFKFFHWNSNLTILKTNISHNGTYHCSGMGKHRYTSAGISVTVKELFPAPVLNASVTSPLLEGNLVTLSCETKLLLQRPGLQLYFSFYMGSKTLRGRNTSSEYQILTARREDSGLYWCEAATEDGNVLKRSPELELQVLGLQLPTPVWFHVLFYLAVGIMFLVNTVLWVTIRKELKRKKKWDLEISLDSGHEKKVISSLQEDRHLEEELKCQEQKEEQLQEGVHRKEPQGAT

[9] = biological target: T4, human CD32a on Jurkat cells …; experiment: flow cytometry on Jurkat-CD32a cells, FITC anti-human Fc detection (Example 16)
CD27-mFc (Kangdai) [10] = biological target: T3, CD27-mFc (Kangdai); experiment: competition ELISA: coated CD70 (1 ug/mL), CD27-mFc plus antibody dilution, HRP anti-mouse Fc detection, absorption at 450/655 nm (Example 15.3); blocked ligand CD70
CD27-mFc (Kangdai) [11] = biological target: T3, CD27-mFc (Kangdai); experiment: competition ELISA: CD70 coated, CD27-mFc 4.3 µg/mL plus antibody dilutions; competitor CD70
[12] = biological target: T1, human CD27 (transmembrane protein) on …; experiment: flow cytometry on CHO cells expressing human CD27; remark: listed apart in the source
[13] = biological target: T2, antigen CD27 (soluble, as used in the …); experiment: BLI, antibody captured on AHC probe, CD27 in solution
CD27-mFc (Kangdai) [14] = biological target: T3, CD27-mFc (Kangdai); experiment: ELISA on coated CD27-mFc; remark: listed apart in the source
mouse CD27 = biological target: T5, mouse CD27; experiment: hybridoma screening; format not described

Binder | EC50 [1] | Kd [2] [nM] | koff [2] [s⁻¹] | kon [2] [M⁻¹ s⁻¹] | EC50 (CD27-mFc (Kangdai) [3]) | IC50 (CD27-mFc (Kangdai) [4]) | further results
B1 | 0.211 µg/mL and 1.41 nM | 0.391 | 0.000684 | 1.75e+06 | 0.0418 µg/mL and 0.28 nM | 1.95 µg/mL and 13.1 nM | 
B2 |  |  |  |  |  |  | IC50 (CD27-mFc (Kangdai) [5]): 1.09 µg/mL; EC50 (CD27-mFc (Kangdai) [6]): 0.037 µg/mL
B3 | 0.224 µg/mL and 1.5 nM |  |  |  | 0.0409 µg/mL and 0.274 nM | 1.91 µg/mL and 12.8 nM | EC50 (CD27-mFc (Kangdai) [7]): 0.029 µg/mL; EC50 (read off the curve) [8]: ~0.7 µg/mL; IC50 (CD27-mFc (Kangdai) [5]): 1.31 µg/mL
B4 |  |  |  |  |  |  | EC50 (CD27-mFc (Kangdai) [7]): 0.029 µg/mL; binding result [8]: no binding (tested: 10 µg/mL); binding result [9]: no binding (tested: 10 µg/mL); IC50 (CD27-mFc (Kangdai) [10]): 1.12 µg/mL
B5 |  | 0.781 | 0.000954 | 1.22e+06 | 0.0503 µg/mL and 0.337 nM | 2.06 µg/mL and 13.8 nM | IC50 (CD27-mFc (Kangdai) [11]): 1.47 µg/mL; EC50 [12]: 2.49 µg/mL; Kd [13]: 1.23 nM; koff [13]: 0.000222 s⁻¹; kon [13]: 181000 M⁻¹ s⁻¹; EC50 (CD27-mFc (Kangdai) [14]): 0.0344 µg/mL
B6 | 0.19 µg/mL and 1.27 nM | 0.699 | 0.00135 | 1.93e+06 | 0.0371 µg/mL and 0.249 nM |  | 
B7 | 0.221 µg/mL and 1.48 nM | 0.643 | 0.00106 | 1.65e+06 | 0.0486 µg/mL and 0.325 nM | 1.92 µg/mL and 12.8 nM | 
B8 |  |  |  |  |  |  | EC50 [12]: ~90.6 µg/mL; Kd [13]: 1.3 nM; koff [13]: 0.00016 s⁻¹; kon [13]: 123000 M⁻¹ s⁻¹; EC50 (CD27-mFc (Kangdai) [14]): 0.0754 µg/mL
B9 | 0.242 µg/mL and 1.62 nM |  |  |  | 0.0361 µg/mL and 0.242 nM | 1.75 µg/mL and 11.7 nM | 
B10 |  |  |  |  |  | 1.91 µg/mL and 12.8 nM | 
B11 |  |  |  |  |  |  | binding result (mouse CD27): no binding
B12 |  |  |  |  |  |  | binding result (mouse CD27): no binding
B13 |  |  |  |  |  |  | binding result (mouse CD27): no binding
